Data set [1] deals with the molecule itself.
Data set [2] concerns the molecule itself. The source holds these as a separate data set.
Data set [3] deals with the molecule itself. The source holds these as a separate data set.

Like-named read-outs stand apart in the source and are kept apart here.

B1: Shigella flexneri IpaD protein fused to the lamprey VLR-B antibody C-terminal domain SEQ ID NO: 2, expressed in E. coli (other)
chain: MNITTLTNSISTSSFSPNNTNGSSTETVNSDIKTTTSSHPVSSLTMLNDTLHNIRTTNQALKKELSQKTLTKTSLEEIALHSSQISMDVNKSAQLLDILSRHEYPINKDARELLHSAPKEAELDGDQMISHRELWAKIANSINDINEQYLKVYEHAVSSYTQMYQDFSAVLSSLAGWISPGGNDGNSVKLQVNSLKKALEELKEKYKDKPLYPANNTVSQEQANKWLTELGGTIGKVSQKNGGYVVSINMTPIDNMLKSLDNLGGNGEVVLDNAKYQAWNAGFSAEDETMKNNLQTLVQKYSNANSIFDNLVKVLSSTISSCTDTDKLFLHFNCTSIQERKNDGGDCGKPACTTLLNCANFLSCLCSTCALCRKR
notes: also called IpaD-lamprey
On to B1, for which, in data set [1], the binding result is listed as “binds”.

B2: Shigella flexneri MxiH protein fused to the lamprey VLR-B antibody C-terminal domain SEQ ID NO: 2, with GGSLE linker and 6xHis tag (other)
chain: MSVTVPNDDWTLSSLSETFDDGTQTLQGELTLALDKLAKNPSNPQLLAEYQSKLSEYTLYRNAQSNTVKVIKDVDAAIIQNFRNCTSIQERKNDGGDCGKPACTTLLNCANFLSCLCSTCALCRKRGGSLEHHHHHH
notes: also called MxiH-lamprey-His
For B2, the binding result in data set [2] was “binds”.

B3: Shigella flexneri MxiH protein fused to the lamprey VLR-B antibody C-terminal domain SEQ ID NO: 2, expressed in E. coli (other)
chain: MSVTVPNDDWTLSSLSETFDDGTQTLQGELTLALDKLAKNPSNPQLLAEYQSKLSEYTLYRNAQSNTVKVIKDVDAAIIQNFRNCTSIQERKNDGGDCGKPACTTLLNCANFLSCLCSTCALCRKR
notes: The expected monomer weight is 13.86 kDa; Found in the insoluble fraction; also called MxiH-lamprey
With B3, the binding result in data set [3] is listed as “binds”.

The values above are taken from patent US20190016760A1 (Sanofi, published 2019).
